T1: C-terminally 6×His-tagged recombinant human NELL2 protein (human, UniProt Q99435 22-816)
T1 construct: Neural EGF-like like 2 (NELL2), human; also called Neural EGF-like like 2
T1 sequence (looked up): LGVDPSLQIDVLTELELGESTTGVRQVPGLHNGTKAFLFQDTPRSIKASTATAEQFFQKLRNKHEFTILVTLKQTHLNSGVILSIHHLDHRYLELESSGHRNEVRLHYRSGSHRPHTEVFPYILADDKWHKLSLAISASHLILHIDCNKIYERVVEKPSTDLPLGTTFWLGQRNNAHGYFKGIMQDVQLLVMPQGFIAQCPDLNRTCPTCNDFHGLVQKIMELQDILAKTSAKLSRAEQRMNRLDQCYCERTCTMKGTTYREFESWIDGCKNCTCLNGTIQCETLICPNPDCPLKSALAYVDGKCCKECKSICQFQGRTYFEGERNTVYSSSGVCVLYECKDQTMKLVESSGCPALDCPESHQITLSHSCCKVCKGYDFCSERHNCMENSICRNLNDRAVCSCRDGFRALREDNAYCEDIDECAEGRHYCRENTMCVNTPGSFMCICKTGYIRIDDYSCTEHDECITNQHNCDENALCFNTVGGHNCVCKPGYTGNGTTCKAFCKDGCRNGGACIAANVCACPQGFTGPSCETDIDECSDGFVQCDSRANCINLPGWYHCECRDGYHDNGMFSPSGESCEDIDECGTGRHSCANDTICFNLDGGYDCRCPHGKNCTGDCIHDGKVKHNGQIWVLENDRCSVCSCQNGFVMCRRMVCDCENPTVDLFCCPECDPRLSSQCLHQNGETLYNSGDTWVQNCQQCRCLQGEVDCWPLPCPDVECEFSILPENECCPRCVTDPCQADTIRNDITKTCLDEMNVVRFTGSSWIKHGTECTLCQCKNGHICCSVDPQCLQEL


Columns and labels:
NICOL (Mus musculus) = NICOL (Mus musculus) (UniProt Q3UR78); details: cited from earlier work
[1] = biological target: T1, C-terminally 6×His-tagged recombinant …; assay: SPR; purified human NELL2 immobilised on a series S sensor chip CM5 as ligand; purified human NICOL in PBS as analyte at increasing concentration; Biacore T200; details: both partners purified

Chain of NICOL (Mus musculus) (Q3UR78 29-90): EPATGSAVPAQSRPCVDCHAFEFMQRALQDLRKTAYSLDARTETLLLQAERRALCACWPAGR
Chain of NELL2 (Q61220 25-819): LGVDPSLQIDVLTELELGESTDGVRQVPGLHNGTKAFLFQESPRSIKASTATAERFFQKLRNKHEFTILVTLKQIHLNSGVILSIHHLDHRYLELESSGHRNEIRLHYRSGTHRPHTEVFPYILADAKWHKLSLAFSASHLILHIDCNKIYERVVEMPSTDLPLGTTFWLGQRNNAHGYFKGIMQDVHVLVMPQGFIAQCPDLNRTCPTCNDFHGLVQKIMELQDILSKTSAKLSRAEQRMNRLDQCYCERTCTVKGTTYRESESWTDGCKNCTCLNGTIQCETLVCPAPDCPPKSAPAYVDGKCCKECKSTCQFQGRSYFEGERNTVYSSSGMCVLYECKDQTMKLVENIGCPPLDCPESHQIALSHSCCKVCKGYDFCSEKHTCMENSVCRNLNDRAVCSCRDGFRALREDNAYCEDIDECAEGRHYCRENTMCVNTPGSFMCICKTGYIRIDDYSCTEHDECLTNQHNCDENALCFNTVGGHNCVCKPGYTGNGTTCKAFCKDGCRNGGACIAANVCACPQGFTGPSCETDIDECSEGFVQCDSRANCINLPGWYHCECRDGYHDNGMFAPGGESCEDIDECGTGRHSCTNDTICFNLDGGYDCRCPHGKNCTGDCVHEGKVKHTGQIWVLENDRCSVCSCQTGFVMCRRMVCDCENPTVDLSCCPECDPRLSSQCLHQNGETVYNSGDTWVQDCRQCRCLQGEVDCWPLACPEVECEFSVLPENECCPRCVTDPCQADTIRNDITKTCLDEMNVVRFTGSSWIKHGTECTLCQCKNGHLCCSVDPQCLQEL

Row | Molecule | Kd (NICOL (Mus musculus)) | Kd [1] | koff [1] | kon [1]
1 | NELL2 (from UniProt Q61220) | 87 nM |  |  | 
2 | C-terminally 6×His-tagged human NICOL protein (ligand, UniProt Q5BLP8 35-95, looked up, also called C4orf48) EPAGSAVPAQSRPCVDCHAFEFMQRALQDLRKTACSLDARTETLLLQAERRALCACWPAGH |  | 110 nM | 0.00098 s⁻¹ | 9100 M⁻¹ s⁻¹
